Consider five molecules from publication PMC4806292, “Structural insights and in vitro reconstitution of membrane targeting and activation of human PI4KB by the ACBD3 protein” (Scientific Reports, 2016).

Changes are numbered by the printed parent chain. Numbers in names are those of the source.

The labels stand for the following.
B1: N-terminal His6GB1-tagged ACBD3 Q domain (residues 241-308) (domain or fragment, human, UniProt Q9H3P7 241-308, looked up)
chain: QQKQQIMAALNSQTAVQFQQYAAQQYPGNYEQQQILIRQLQEQHYQQYMQQLYQVQLAQQQAALQKQQ
notes: ACBD3 Q domain (glutamine rich region), human, UniProtKB Q9H3P7, residues 241-308; also called Q domain of ACBD3; source: E. coli BL21 Star, purified (Ni-NTA, SEC); not shown: His6, N-terminal, kept; GB1, N-terminal, kept
B2: PI4KB, untagged (residues 423-522 removed) (enzyme, human, UniProt Q9UBF8 1-816, looked up)
chain: MGDTVVEPAPLKPTSEPTSGPPGNNGGSLLSVITEGVGELSVIDPEVAQKACQEVLEKVKLLHGGVAVSSRGTPLELVNGDGVDSEIRCLDDPPAQIREEEDEMGAAVASGTAKGARRRRQNNSAKQSWLLRLFESKLFDISMAISYLYNSKEPGVQAYIGNRLFCFRNEDVDFYLPQLLNMYIHMDEDVGDAIKPYIVHRCRQSINFSLQCALLLGAYSSDMHISTQRHSRGTKLRKLILSDELKPAHRKRELPSLSPAPDTGLSPSKRTHQRSKSDATASISLSSNLKRTASNPKVENEDEELSSSTESIDNSFSSPVRLAPEREFIKSLMAIGKRLATLPTKEQKTQRLISELSLLNHKLPARVWLPTAGFDHHVVRVPHTQAVVLNSKDKAPYLIYVEVLECENFDTTSVPARIPENRRDPEDPSAVALKEPWQEKVRRIREGSPYGHLPNWRLLSVIVKCGDDLRQELLAFQVLKQLQSIWEQERVPLWIKPYKILVISADSGMIEPVVNAVSIHQVKKQSQLSLLDYFLQEHGSYTTEAFLSAQRNFVQSCAGYCLVCYLLQVKDRHNGNILLDAEGHIIHIDFGFILSSSPRNLGFETSAFKLTTEFVDVMGGLDGDMFNYYKMLMLQGLIAARKHMDKVVQIVEIMQQGSQLPCFHGSSTIRNLKERFHMSMTEEQLQLLVEQMVDGSMRSITTKLYDGFQYLTNGIM
notes: Phosphatidylinositol 4-kinase beta (PI4KB), human, UniProtKB entry Q9UBF8 isoform 1, with the intrinsically disordered region 423-522 removed; Called untagged in the pull-downs; the AUC mass of about 80 kDa fits the deleted form; also called PI4K IIIβ; untagged full-length PI4KB; source: E. coli BL21 Star, purified (Ni-NTA, TEV, SEC); not shown: His6, N-terminal, cleaved; GB1, N-terminal, cleaved
B3: Acyl-coenzyme A binding domain containing protein 3 (ACBD3), full length, untagged (natural protein, human, UniProt Q9H3P7 1-528, looked up)
chain: MAAVLNAERLEVSVDGLTLSPDPEERPGAEGAPLLPPPLPPPSPPGSGRGPGASGEQPEPGEAAAGGAAEEARRLEQRWGFGLEELYGLALRFFKEKDGKAFHPTYEEKLKLVALHKQVLMGPYNPDTCPEVGFFDVLGNDRRREWAALGNMSKEDAMVEFVKLLNRCCHLFSTYVASHKIEKEEQEKKRKEEEERRRREEEERERLQKEEEKRRREEEERLRREEEERRRIEEERLRLEQQKQQIMAALNSQTAVQFQQYAAQQYPGNYEQQQILIRQLQEQHYQQYMQQLYQVQLAQQQAALQKQQEVVVAGSSLPTSSKVNATVPSNMMSVNGQAKTHTDSSEKELEPEAAEEALENGPKESLPVIAAPSMWTRPQIKDFKEKIQQDADSVITVGRGEVVTVRVPTHEEGSYLFWEFATDNYDIGFGVYFEWTDSPNTAVSVHVSESSDDDEEEEENIGCEEKAKKNANKPLLDEIVPVYRRDCHEEVYAGSHQYPGRGVYLLKFDNSYSLWRSKSVYYRVYYTR
notes: ACBD3, human, UniProtKB entry Q9H3P7, full length; Called untagged in the pull-downs; also called GCP60; PAP7; source: E. coli BL21 Star, purified (Ni-NTA, TEV, SEC); not shown: His6, N-terminal, cleaved; GB1, N-terminal, cleaved
B4: N-terminal His6GB1-tagged PI4KB N-terminal region (residues 1-68) (domain or fragment, human, UniProt Q9UBF8 1-68, looked up)
chain: MGDTVVEPAPLKPTSEPTSGPPGNNGGSLLSVITEGVGELSVIDPEVAQKACQEVLEKVKLLHGGVAV
notes: PI4KB N-terminal region preceding the helical domain, human, UniProtKB Q9UBF8 isoform 1, residues 1-68; also called N-terminal region of PI4KB; source: E. coli BL21 Star, purified (Ni-NTA, SEC); not shown: His6, N-terminal, kept; GB1, N-terminal, kept
B5: ACBD3 Y266A mutant, untagged (natural protein, human, UniProt Q9H3P7 1-528, looked up)
chain: B3 chain with Y266A
notes: ACBD3, human, UniProtKB Q9H3P7, point mutant; source: E. coli BL21 Star, purified (Ni-NTA, TEV, SEC); not shown: His6, N-terminal, cleaved; GB1, N-terminal, cleaved

What all share (conditions): both partners purified
For experiment [1], the target named is B2. As to the kind of experiment: pull-down; Ni-NTA sepharose beads, one partner with N-terminal His6GB1 tag immobilised, both partners 1 μM in 200 μL 30 mM Tris pH 8, 200 mM NaCl, 10 mM imidazole, 1 mM TCEP; 30 min at 4 °C; SDS gels stained with Coomassie Blue.
Experiment [2] concerns the target B3. As to the kind of experiment: AUC; sedimentation velocity, full-length proteins alone and as complex, 5 μM (both proteins); 10 mM Tris pH 8, 200 mM NaCl, 3 mM β-mercaptoethanol, 20 °C, 48000 rpm; c(s) model.
For experiment [3], the target named is B2. As to the kind of experiment: SPR; legend: PI4KB binding to immobilized ACBD3; methods: PI4KB chip-immobilized, ACBD3 injected in a series of concentrations for 3 min, dissociation 5 min; single-exponential model.
Experiment [4] addresses T1, His6GB1-tagged PI4KB V47A mutant (human, UniProt Q9UBF8 1-816, V47A | residues 423–522 removed).
T1 construct: PI4KB, human, UniProtKB Q9UBF8 isoform 1, residues 423-522 removed, point mutant; source: E. coli BL21 Star, purified (Ni-NTA, SEC); not shown: His6, N-terminal, kept; GB1, N-terminal, kept
Nature of the experiment: pull-down; Ni-NTA sepharose beads, one partner with N-terminal His6GB1 tag immobilised, both partners 1 μM in 200 μL 30 mM Tris pH 8, 200 mM NaCl, 10 mM imidazole, 1 mM TCEP; 30 min at 4 °C; SDS gels stained with Coomassie Blue.

Experiment [5] concerns the target T2, His6GB1-tagged PI4KB V42A mutant (human, UniProt Q9UBF8 1-816, V42A | residues 423–522 removed).
T2 construct: PI4KB, human, UniProtKB Q9UBF8 isoform 1, residues 423-522 removed, point mutant; source: E. coli BL21 Star, purified (Ni-NTA, SEC); not shown: His6, N-terminal, kept; GB1, N-terminal, kept
The description is as above.

Experiment [6] deals with B3. Described as above.
In experiment [7] the target is T3, N-terminal His6GB1-tagged PI4KB (residues 423-522 removed) (human, UniProt Q9UBF8 1-816, residues 423–522 removed).
T3 construct: Phosphatidylinositol 4-kinase beta (PI4KB), human, UniProtKB entry Q9UBF8 isoform 1, with the intrinsically disordered region 423-522 removed; also called PI4K IIIβ; His6-tagged wild type PI4KB; source: E. coli BL21 Star, purified (Ni-NTA, SEC); not shown: His6, N-terminal, kept; GB1, N-terminal, kept
The experiment is described as above.

Regarding B1, in experiment [1], the binding result is “binds”.

In the case of B2, the “stoichiometry N” value in experiment [2] was 1.

In experiment [3], B3 came in with a Kd of 320 nM. In addition, the binding result in experiment [4] and in experiment [5] was “binds” in each case.

For B4, the binding result in experiment [6] was “binds”.

With B5, in experiment [7], the binding result is on record as “binds”.
